Data reported in patent US20060263349A1.

Target: human CD20 on WIL2-S B lymphoblast cells (human) (UniProt P11836)
Assay: cell-based or functional assay

Chain of UniProt P11836 (P11836 whole entry): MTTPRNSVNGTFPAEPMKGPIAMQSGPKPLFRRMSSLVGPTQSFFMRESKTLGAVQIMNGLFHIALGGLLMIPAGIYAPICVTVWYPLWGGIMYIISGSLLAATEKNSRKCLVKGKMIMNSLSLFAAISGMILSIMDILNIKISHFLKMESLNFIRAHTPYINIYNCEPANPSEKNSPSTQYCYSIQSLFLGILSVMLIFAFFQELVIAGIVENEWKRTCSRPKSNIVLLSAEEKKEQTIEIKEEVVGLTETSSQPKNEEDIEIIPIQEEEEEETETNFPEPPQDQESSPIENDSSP

## Rituximab (antibody)
  CDC activity above background cell lysis at 0.4 µg/mL Rituximab: 25 to 30%
  Rituximab concentration at maximal cell lysis (CDC, WIL2-S cells, … GLO): 5 µg/mL
  percentage of live cells remaining at 1 µg/mL Rituximab (control): 40%
